Test results: article PMC9482650, “Quantitative fragmentomics allow affinity mapping of interactomes” (Nature Communications, 2022)

T1: FRMPD1, Q5SYB0
T1 sequence (Q5SYB0 52-145, limits assumed, looked up): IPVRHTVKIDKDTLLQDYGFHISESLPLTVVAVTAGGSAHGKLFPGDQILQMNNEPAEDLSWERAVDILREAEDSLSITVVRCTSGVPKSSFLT

T2: APBA2_2, Q99767
T2 sequence (Q99767 654-744, limits assumed, looked up): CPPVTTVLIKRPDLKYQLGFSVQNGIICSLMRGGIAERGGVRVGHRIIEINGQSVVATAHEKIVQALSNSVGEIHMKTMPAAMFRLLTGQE

T3: GRIP1_7, Q9Y3R0
T3 sequence (Q9Y3R0 999-1096, limits assumed, looked up): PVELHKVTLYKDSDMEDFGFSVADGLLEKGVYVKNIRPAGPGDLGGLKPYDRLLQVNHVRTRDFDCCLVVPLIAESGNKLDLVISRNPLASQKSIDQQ

T4: LIN7B, Q9HAP6
T4 sequence (Q9HAP6 88-185, limits assumed, looked up): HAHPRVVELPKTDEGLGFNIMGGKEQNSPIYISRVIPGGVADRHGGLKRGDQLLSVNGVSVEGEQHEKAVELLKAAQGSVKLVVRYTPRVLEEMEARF

T5: GRIP1_4, Q9Y3R0
T5 sequence (Q9Y3R0 467-571, limits assumed, looked up): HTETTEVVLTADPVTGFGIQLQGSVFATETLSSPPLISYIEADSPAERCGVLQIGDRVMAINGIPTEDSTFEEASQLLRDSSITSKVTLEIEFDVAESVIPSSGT

T6: TIAM2, Q8IVF5
T6 sequence (Q8IVF5 885-986, limits assumed, looked up): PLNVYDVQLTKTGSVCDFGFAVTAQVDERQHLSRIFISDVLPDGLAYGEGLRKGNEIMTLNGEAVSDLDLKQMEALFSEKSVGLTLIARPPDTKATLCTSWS

T7: PCLO, Q9Y6V0
T7 sequence (Q9Y6V0 4491-4600, limits assumed, looked up): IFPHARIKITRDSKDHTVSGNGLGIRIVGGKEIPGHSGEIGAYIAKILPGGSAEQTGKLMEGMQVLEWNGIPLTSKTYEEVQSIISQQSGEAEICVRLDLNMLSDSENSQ

T8: LIN7A, O14910
T8 sequence (O14910 103-200, limits assumed, looked up): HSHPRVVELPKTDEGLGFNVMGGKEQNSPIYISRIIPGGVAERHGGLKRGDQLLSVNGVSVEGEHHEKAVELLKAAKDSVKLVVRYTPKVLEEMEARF

T9: PDZD7_3, Q9H5P4
T9 sequence (Q9H5P4 857-944, limits assumed, looked up): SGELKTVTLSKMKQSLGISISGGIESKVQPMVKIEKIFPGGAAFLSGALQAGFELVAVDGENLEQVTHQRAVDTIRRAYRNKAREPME

T10: PTPN13_1, Q12923
T10 sequence (Q12923 1088-1188, limits assumed, looked up): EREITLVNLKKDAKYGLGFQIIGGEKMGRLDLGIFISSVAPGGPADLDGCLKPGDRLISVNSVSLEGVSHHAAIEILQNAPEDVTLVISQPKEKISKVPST


Tests used:
Assay in all cases: holdup assay
Design in all cases: key: below the threshold = too weak to quantify, mostly under pKd 3.1 to 4
Details in all cases: plain residues with an end cap or a label only (N-terminal biotin on a linker: ado-ado)
[1] = molecular target: FRMPD4, Q14CM0
Chain of FRMPD4, Q14CM0 (Q14CM0 67-160): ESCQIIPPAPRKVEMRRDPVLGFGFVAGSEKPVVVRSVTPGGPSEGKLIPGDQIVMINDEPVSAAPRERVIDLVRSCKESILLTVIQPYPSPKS

[2] = molecular target: T1, FRMPD1, Q5SYB0
[3] = molecular target: T2, APBA2_2, Q99767
[4] = molecular target: T3, GRIP1_7, Q9Y3R0
[5] = molecular target: DLG2_3, Q15700
[6] = molecular target: IL16_1, Q14005
Chain of IL16_1, Q14005 (Q14005 210-306): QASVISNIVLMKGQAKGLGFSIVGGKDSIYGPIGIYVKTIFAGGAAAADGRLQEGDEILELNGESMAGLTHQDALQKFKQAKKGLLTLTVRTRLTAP

[7] = molecular target: DLG4_2, P78352
Chain of DLG4_2, P78352 (P78352 155-259): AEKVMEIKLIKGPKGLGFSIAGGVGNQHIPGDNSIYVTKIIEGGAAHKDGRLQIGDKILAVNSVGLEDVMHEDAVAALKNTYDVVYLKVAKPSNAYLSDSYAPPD

[8] = molecular target: Inadl_5, Q8NI35
Chain of Inadl_5, Q8NI35 (Q8NI35 673-780): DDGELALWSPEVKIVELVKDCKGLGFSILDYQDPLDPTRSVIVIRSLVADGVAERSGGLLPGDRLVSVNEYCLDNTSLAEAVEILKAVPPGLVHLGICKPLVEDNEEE

[9] = molecular target: T4, LIN7B, Q9HAP6
[10] = molecular target: T5, GRIP1_4, Q9Y3R0
[11] = molecular target: T6, TIAM2, Q8IVF5
[12] = molecular target: MAGI2_4, Q86UL8
Chain of MAGI2_4, Q86UL8 (Q86UL8 772-865): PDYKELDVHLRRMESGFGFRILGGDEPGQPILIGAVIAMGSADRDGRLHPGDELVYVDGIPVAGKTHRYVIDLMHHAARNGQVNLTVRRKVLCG

[13] = molecular target: T7, PCLO, Q9Y6V0
[14] = molecular target: GRID2IP_1, A4D2P6
Chain of GRID2IP_1, A4D2P6 (A4D2P6 1-87): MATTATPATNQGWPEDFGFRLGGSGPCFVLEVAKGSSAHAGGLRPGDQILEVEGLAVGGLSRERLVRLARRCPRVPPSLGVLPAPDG

[15] = molecular target: LNX1_3, Q8TBB1
Chain of LNX1_3, Q8TBB1 (Q8TBB1 500-596): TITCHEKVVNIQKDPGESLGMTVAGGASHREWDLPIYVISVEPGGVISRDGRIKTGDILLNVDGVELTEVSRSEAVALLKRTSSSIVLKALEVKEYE

[16] = molecular target: T8, LIN7A, O14910
[17] = molecular target: GRID2IP_2, A4D2P6
Chain of GRID2IP_2, A4D2P6 (A4D2P6 272-370): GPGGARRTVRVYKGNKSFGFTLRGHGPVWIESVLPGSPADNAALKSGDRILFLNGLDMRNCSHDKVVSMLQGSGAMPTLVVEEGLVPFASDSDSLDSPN

[18] = molecular target: MAST1, Q9Y2H9
Chain of MAST1, Q9Y2H9 (Q9Y2H9 962-1065): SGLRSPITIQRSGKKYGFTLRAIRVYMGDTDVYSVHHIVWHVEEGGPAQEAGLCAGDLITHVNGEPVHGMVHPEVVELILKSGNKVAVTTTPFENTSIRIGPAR

[19] = molecular target: T9, PDZD7_3, Q9H5P4
[20] = molecular target: PDZRN4_1, Q6ZMN7
Chain of PDZRN4_1, Q6ZMN7 (Q6ZMN7 213-318): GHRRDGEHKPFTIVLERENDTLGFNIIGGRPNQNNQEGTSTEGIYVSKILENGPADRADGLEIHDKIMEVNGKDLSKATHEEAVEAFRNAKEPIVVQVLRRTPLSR

[21] = molecular target: T10, PTPN13_1, Q12923
[22] = molecular target: LNX1_1, Q8TBB1
Chain of LNX1_1, Q8TBB1 (Q8TBB1 261-371): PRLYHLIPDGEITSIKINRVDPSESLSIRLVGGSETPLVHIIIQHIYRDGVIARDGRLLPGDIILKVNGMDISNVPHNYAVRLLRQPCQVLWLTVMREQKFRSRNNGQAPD

[23] = molecular target: MAGI2_6, Q86UL8
Chain of MAGI2_6, Q86UL8 (Q86UL8 1141-1229): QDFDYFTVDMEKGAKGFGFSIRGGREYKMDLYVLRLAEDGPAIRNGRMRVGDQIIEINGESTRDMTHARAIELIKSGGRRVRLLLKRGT

[24] = molecular target: SCRIB_1, Q14160
Chain of SCRIB_1, Q14160 (Q14160 718-814): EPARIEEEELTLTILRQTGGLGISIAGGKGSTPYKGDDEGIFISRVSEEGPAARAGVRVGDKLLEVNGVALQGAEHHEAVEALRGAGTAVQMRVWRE

[25] = molecular target: MAGI2_3, Q86UL8
Chain of MAGI2_3, Q86UL8 (Q86UL8 600-682): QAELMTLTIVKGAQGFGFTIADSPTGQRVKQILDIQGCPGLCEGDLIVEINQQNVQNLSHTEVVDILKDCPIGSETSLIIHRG

[26] = molecular target: TJP1_2, Q07157
Chain of TJP1_2, Q07157 (Q07157 181-274): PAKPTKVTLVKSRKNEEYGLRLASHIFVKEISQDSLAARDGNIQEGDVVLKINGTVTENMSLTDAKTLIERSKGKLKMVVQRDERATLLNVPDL

[27] = molecular target: FRMPD3, Q5JV73
Chain of FRMPD3, Q5JV73 (Q5JV73 12-100): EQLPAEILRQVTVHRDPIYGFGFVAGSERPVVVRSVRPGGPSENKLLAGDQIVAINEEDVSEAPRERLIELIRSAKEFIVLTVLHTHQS

| pKd [1] | pKd [2] | pKd [3] | pKd [4] | pKd [5] | pKd [6] | pKd [7] | pKd [8] | pKd [9] | pKd [10] | pKd [11] | pKd [12] | pKd [13] | pKd [14] | pKd [15] | pKd [16] | pKd [17] | pKd [18] | pKd [19] | pKd [20] | Binder | further results |
| --- | --- | --- | --- | --- | --- | --- | --- | --- | --- | --- | --- | --- | --- | --- | --- | --- | --- | --- | --- | --- | --- |
| below the threshold | below the threshold | below the threshold | below the threshold | below the threshold | below the threshold | below the threshold | below the threshold | below the threshold | below the threshold | below the threshold | below the threshold | below the threshold | below the threshold | below the threshold | below the threshold | below the threshold | below the threshold | below the threshold | below the threshold | LAHVKHKEQI [AQP3, Q92482] | pKd [21]: below the threshold; pKd [22]: below the threshold; pKd [23]: below the threshold; pKd [24]: below the threshold; pKd [25]: below the threshold; pKd [26]: below the threshold; pKd [27]: below the threshold |
| below the threshold | below the threshold | below the threshold | below the threshold | below the threshold | 4.06 | 4.49 | 3.82 | below the threshold | below the threshold | below the threshold | 3.94 | below the threshold | below the threshold | below the threshold | below the threshold | 4.61 | below the threshold | 4.63 | 3.79 | APIAGFSSFV [SDK2, Q58EX2] | pKd [21]: below the threshold; pKd [22]: 5.16; pKd [23]: 4.13; pKd [24]: below the threshold; pKd [25]: below the threshold; pKd [26]: below the threshold; pKd [27]: below the threshold |
| below the threshold | below the threshold | below the threshold | below the threshold | 3.71 | below the threshold | below the threshold | below the threshold | 3.83 | below the threshold | 4.15 | below the threshold | below the threshold | below the threshold | below the threshold | below the threshold | below the threshold | 4.75 | 4.23 | below the threshold | EDPRVEVTQF [SLC22A9, Q8IVM8] | pKd [21]: below the threshold; pKd [22]: below the threshold; pKd [23]: 3.87; pKd [24]: 3.91; pKd [25]: below the threshold; pKd [26]: below the threshold; pKd [27]: below the threshold |

The next lines start with the binder.

| Binder | pKd [1] | pKd [2] | pKd [3] | pKd [4] | pKd [5] | pKd [6] | pKd [7] | pKd [8] | pKd [9] | pKd [10] | pKd [11] | pKd [12] | pKd [13] | pKd [14] | pKd [15] | pKd [16] | pKd [17] | pKd [18] | pKd [19] | pKd [20] | further results |
| --- | --- | --- | --- | --- | --- | --- | --- | --- | --- | --- | --- | --- | --- | --- | --- | --- | --- | --- | --- | --- | --- |
| RFQQRMQTHV [KIRREL1, Q96J84] | below the threshold | below the threshold | below the threshold | below the threshold | 4.48 | below the threshold | 4.64 | 3.6 | below the threshold | below the threshold | 3.97 | 3.76 | below the threshold | below the threshold | below the threshold | below the threshold | 3.96 | 4.76 | 4.5 | below the threshold | pKd [21]: below the threshold; pKd [22]: below the threshold; pKd [23]: below the threshold; pKd [24]: 4.25; pKd [25]: 3.75; pKd [26]: below the threshold; pKd [27]: below the threshold |
| REEPDHSTEV [CCRL2, O00421] | 3.47 | below the threshold | below the threshold | 3.56 | below the threshold | 3.59 | 4.66 | below the threshold | below the threshold | below the threshold | below the threshold | 3.95 | below the threshold | below the threshold | below the threshold | below the threshold | 4.15 | 4.74 | 4.31 | 4.17 | pKd [21]: below the threshold; pKd [22]: 4.09; pKd [23]: 4.71; pKd [24]: 4.03; pKd [25]: below the threshold; pKd [26]: below the threshold; pKd [27]: 3.6 |
